In patent US20150072922A1, “RNASE 7 ANTIMICROBIAL PEPTIDES” (THE RESEARCH INSTITUTE AT NATIONWIDE CHILDREN'S HOSPITAL, priority 2012, published 2015):
Entries after “also recorded” stand apart in the source; their conditions may differ.

B1: RNase7: recombinant full-length human Ribonuclease 7, amino acids 1-128 (SEQ ID NO: 1), N-terminal His tag (protein, listed as Homo sapiens)
chain: KPKGMTSSQWFKIQHMQPSPQACNSAMKNINKHTKRCKDLNTFLHEPFSSVAATCQTPKIACKNGDKNCHQSHGPVSLTMCKLTSGKYPNCRYKEKRQNKSYVVACKPPQKKDSQQFHLVPVHLDRVL
modifications: N-terminal His tag
B2: F:1-97: recombinant N-terminal RNase 7 fragment, amino acids 1 to 97 (SEQ ID NO: 5), N-terminal His tag (protein, listed as Homo sapiens)
chain: KPKGMTSSQWFKIQHMQPSPQACNSAMKNINKHTKRCKDLNTFLHEPFSSVAATCQTPKIACKNGDKNCHQSHGPVSLTMCKLTSGKYPNCRYKEKR
modifications: N-terminal His tag

What was measured:
S. saprophyticus = experiment: Urinary condition functional assay (OD600 growth curves); format: cell-based, Staphylococcus saprophyticus; settings: for activity on S. saprophyticus growth at various NaCl titers: 2 μM peptide, 50, 150, 500 mM NaCl, FIG. 7; for activity on S. saprophyticus growth at various NaCl titers / activity on S. saprophyticus growth at various CaCl2 titers: OD600 for 10 hours; for activity on S. saprophyticus growth at various CaCl2 titers / activity on S. saprophyticus growth at various pH levels: 2 μM peptide; for activity on S. saprophyticus growth at various CaCl2 titers: CaCl2 up to 16.25 mM, FIG. 8; for activity on S. saprophyticus growth at various pH levels: pH 5, 7, 9, OD600 for 10 hours, FIG. 6
Procedure: (§1) Because the urinary environment can have significant variation in salt concentration, ionic composition, and pH, an antimicrobial/bacteriostatic assay was performed to evaluate if pH, calcium, or ionic strength affects the activity of full-length RNase7 or its fragments. The highest activity fragment F:1-97 and lowest activity fragment F:72-128 for these experiments were chosen. Bacteria were inoculated in 1% peptone water and growth to log phase with OD600=0.5. Bacteria were diluted to 1:10 and 1 μl added to 100 μl of 1% peptone water with various pH, CaCl2 or NaCl concentrations that correspond to a physiologic range present in the urine in a 96-well flat bottom plate (Thermo Scientific, Nunc, Worcester, Mass.). To each well, 2 μM of RNase7 or its fragments were added.
(§2) Bacterial growth was monitored using an Absorbance microplate reader (BioTek Instruments, Winooski, Vt.) at a final volume of 110 μl. The turbidity of the culture was measured and recorded at t=0 and every 20 min thereafter for 10 hours using the absorbance at 600 nm (OD600). The values of OD600 values were plotted against times to generate growth curves.

[1] = system: Proteus mirabilis (ATCC 7002); experiment: Antimicrobial kill (microdilution) assay, MIC/MBC by CFU count; format: cell-based; settings: for P. mirabilis MIC: lowest concentration that inhibits the growth of 90% of the inoculation; for P. mirabilis MIC / P. mirabilis MBC: 3 hours, 0.1×PBS; for P. mirabilis MBC: minimum bactericidal concentration
Procedure: Uropathogenic Escherichia coli (UTI89) was grown in Luria broth (LB) medium and plated on LB-agar. Uropathogenic Staphylococcus saprophyticus (ATCC 15305) was grown in LB and plated on Trypticase Soy Agar with 5% sheep blood (Fisher Scientific, Pittsburgh, Pa., USA). Uropathogenic Proteus mirabilis (ATCC 7002) was grown in LB and plated on MacConkey II Agar (Fisher Scientific, Pittsburgh, Pa., USA). These organisms were chosen as the primary organisms that account for a majority of Gram-negative and Gram-positive urinary tract infections (UTI). Anti-RNase 7 antibody was generated in rabbit with recombinant human RNase 7 (Biomatik, Wilmington, Del., USA)
(§3) Antimicrobial activities of the recombinant peptides were estimated with a microdilution assay. Briefly, the test bacteria (10^4 CFUs) were incubated with various concentrations of RNase 7 and each fragment in 50 ul 0.1×PBS buffer for 3 hours at 37° C. After incubation on Agar plates overnight at 37° C., the number of colony-forming units (CFUs) at each peptide concentration was determined. Using untreated bacterial aliquots as baseline, the minimum inhibition concentration (MIC) was defined as the lowest concentration that inhibits the growth of 90% of the inoculation, and the minimum bactericidal concentration (MBC) was defined as the lowest concentration at which less than 99.99% of the initial inoculum is viable.

Escherichia coli (UTI89) = experiment: as above; format: cell-based; settings: for E. coli MIC: lowest concentration that inhibits the growth of 90% of the inoculation; for E. coli MIC / E. coli MBC: 3 hours, 0.1×PBS; for E. coli MBC: minimum bactericidal concentration; for antimicrobial activity against E. coli (in words): MIC/MBC based, mostly compared to full-length RNase 7
Procedure: (§4) The antimicrobial activity of RNase 7 and its fragments was estimated using a microdilution assay. Briefly, test bacteria (10^5) were incubated with several concentrations of RNase 7 and each fragment in 50 μl 0.1×PBS buffer for 3 hours in a 37° C. incubator. Each reaction was plated on the appropriate medium and grew overnight at 37° C. The antimicrobial activity was determined by the number of colony-forming units (CFUs) the following day. The minimum inhibition concentration (MIC) is defined as the lowest concentration that inhibits the growth of 90% of the inoculation and the minimum bactericidal concentration (MB C) is defined as the lowest concentration at which less than 99.99% of the initial inoculum is viable.
as §3

[2] = system: Staphylococcus saprophyticus (ATCC 15305); experiment: as above; format: cell-based; settings: for S. saprophyticus MIC: lowest concentration that inhibits the growth of 90% of the inoculation; for S. saprophyticus MIC / S. saprophyticus MBC: 3 hours, 0.1×PBS; for S. saprophyticus MBC: minimum bactericidal concentration; for antimicrobial activity against S. saprophyticus (in words): MIC/MBC based, mostly compared to full-length RNase 7
Procedure: as §4, §3

E. coli (UTI-89) = experiment: Live/Dead BacLight bacterial viability assay (confocal imaging); format: cell-based, Escherichia coli; settings: 1 μM
Procedure: (§5) Bacterial viability assays were performed using a Live/Dead BacLight™ bacterial viability kit (Invitrogen). Uropathogenic E. coli (UTI-89) and S. Saprophyticus (ATCC 15305) were grown at 37° C. to the mid-log phase, centrifuged at 5000 rpm for 5 min, and resuspended in water with an OD=0.2. Bacteria were stained using a 1:1 mixture of a green-fluorescent STY®9 dye and a red-fluorescent propidium iodide dye as provided in the Live/Dead BacLight™ bacterial viability kit. SYTO®9 labels both live and dead bacteria. Propidium iodide penetrates only bacteria with damaged membranes. Consequently, live bacteria with intact membranes fluoresce green, while dead bacteria with damaged membranes fluoresce red. […]. 50 uL of stained uropathogenic bacteria was mixed with recombinant RNase 7 or RNase 7 fragments to achieve a final concentration of 3 uM and 1 uM. 10 uL of this mixture was added to poly-1-lysine coated microscope slides (Polysciences, Inc, Warrington, Pa., USA) and confocal images of the bacteria were obtained using a Zeiss LSM 700 confocal laser scanning microscope (Carl Zeiss LLC, Thornwood, N.Y., USA). SYTO®9 was excited using an argon laser (448-500 nm emission collected) and propidium iodide was excited using an orange diode (555-600 nm emission collected). Samples were imaged in triplicate.
(§6) For images of intact versus disrupted membranes of dying/dead cells, the Live/Dead BacLight™ bacterial viability kit (Invitrogen) was used. E. coli and S. saprophyticus were grown at 37° C. to the mid-log phase, centrifuged at 5000 rpm for 5 min, and resuspended in water to an OD600 of 0.2. Bacteria were incubated in a 1:1 mixture of Live/Dead BacLight™ bacterial viability assay. A bacterial aliquot of 50 μL was mixed with recombinant RNase 7 or recombinant fragments to achieve a final concentration of 1 μM. Ten microliters of this mixture was added to poly-1-lysine coated microscope slides (Polysciences, Inc, Warrington, Pa., USA), and images were obtained in triplicate using a Zeiss LSM 710 confocal laser scanning microscope (Carl Zeiss LLC, Thornwood, N.Y., USA).

[3] = system: S. Saprophyticus (ATCC 15305); experiment: as above; format: cell-based, Staphylococcus saprophyticus; settings: 1 μM
Procedure: as §5, §6

Proteus mirabilis = experiment: Urinary condition functional assay (OD600 growth curves); format: cell-based; settings: for activity on Proteus mirabilis growth at various CaCl2 titers: 2 μM peptide, 1.25, 7.5, 16.25 mM CaCl2, OD600 for 10 hours, FIG. 11; for activity on Proteus mirabilis growth at various NaCl titers: 2 μM peptide, 50, 150, 500 mM NaCl, OD600 for 10 hours, FIG. 10; for activity on Proteus mirabilis growth at various pH levels: 2 μM peptide, pH 5, 7, 9, OD600 for 10 hours, FIG. 9
Procedure: as §1, §2

E. coli = experiment: as above; format: cell-based, Escherichia coli; settings: for activity on E. coli growth at various pH levels / activity on E. coli growth at various CaCl2 titers: 2 μM peptide; for activity on E. coli growth at various pH levels: 1% peptone water, pH 5, 7, 9, OD600 for 10 hours, FIG. 3; for activity on E. coli growth at various NaCl titers: 2 μM peptide, 50, 150, 500 mM NaCl, FIG. 4; for activity on E. coli growth at various NaCl titers / activity on E. coli growth at various CaCl2 titers: OD600 for 10 hours; for activity on E. coli growth at various CaCl2 titers: CaCl2 up to 16.25 mM, FIG. 5
Procedure: as §1, §2

[4] = compared to full-length RNase 7

| Molecule | activity on S. saprophyticus growth at various NaCl titers (S. saprophyticus) | activity on S. saprophyticus growth at various CaCl2 titers (S. saprophyticus) | activity on S. saprophyticus growth at various pH levels (S. saprophyticus) | P. mirabilis MIC [1] | P. mirabilis MBC [1] | E. coli MIC (Escherichia coli (UTI89)) | E. coli MBC (Escherichia coli (UTI89)) | S. saprophyticus MIC [2] | S. saprophyticus MBC [2] | killing of E. coli in Bacterial Viability Assay (E. coli (UTI-89); 30 min) | killing of E. coli in Bacterial Viability Assay (E. coli (UTI-89); 3 hours) | killing of S. saprophyticus in Bacterial Viability Assay ([3]; 30 min) | killing of S. saprophyticus in Bacterial Viability Assay ([3]; 3 hours) | activity on Proteus mirabilis growth at various CaCl2 titers (Proteus mirabilis) | activity on Proteus mirabilis growth at various NaCl titers (Proteus mirabilis) | activity on Proteus mirabilis growth at various pH levels (Proteus mirabilis) | activity on E. coli growth at various pH levels (E. coli) | activity on E. coli growth at various NaCl titers (E. coli) | activity on E. coli growth at various CaCl2 titers (E. coli) | further results |
| --- | --- | --- | --- | --- | --- | --- | --- | --- | --- | --- | --- | --- | --- | --- | --- | --- | --- | --- | --- | --- |
| B1 | diminished in direct proportion to NaCl concentration; also recorded: activity inversely related to NaCl concentration | significantly reduced full-length RNase 7 activity against all uropathogens; also recorded: activity is inversely related to CaCl2 concentration | activity is potent at all pH; also recorded: maintained high activity at pH 5 | .88 µM | .88 µM | 0.26 µM | 0.53 µM | 0.22 µM | .44 µM | did not | completely dead | did not | completely dead | significantly reduced full-length RNase 7 activity against all uropathogens; also recorded: activity is significantly diminished at higher CaCl2 concentrations but relatively unaffected at 1.25 mM concentration | diminished significantly with additional of any NaCl titer; also recorded: activity markedly diminished at all salt concentrations | maintained high activity at pH 5; also recorded: activity is potent at pH 5 | pH 9 (dotted line) decreases full-length RNase 7 activity; also recorded: activity was optimal at pH 7 against E. coli | activity was not different at 50 and 150 mM NaCl | activity is inversely related to CaCl2 concentration; also recorded: significantly reduced full-length RNase 7 activity against all uropathogens | MIC for P. mirabilis [1]: 0.88 µM; antimicrobial activity against P. mirabilis (in words) ([1]; MIC/MBC based, mostly compared to full-length RNase 7): MIC and MBC values that were identical; MIC against E. coli (Escherichia coli (UTI89)): 0.26 µM; MIC for E. coli (Escherichia coli (UTI89); E. coli UTI89): 0.26 LM; MIC for S. saprophyticus [2]: 0.22 µM |
| B2 | diminished in direct proportion to NaCl concentration; also recorded: activity pattern comparable to full-length peptide at various NaCl concentrations | sensitive to CaCl2 concentrations; also recorded: activity is inversely related to CaCl2 concentration but more pronounced compared to full length RNase 7 | optimal activity at pH 5 | .44 µM | .88 µM | 0.07 µM | 0.14 µM | 0.04 µM | 0.08 µM | killed most of the E. coli and S. saprophyticus | completely dead | killed most of the E. coli and S. saprophyticus | completely dead | unchanged activity under all conditions against P. mirabilis; also recorded: activity is not significantly altered by CaCl2 concentrations | activity pattern comparable to full-length peptide at various NaCl concentrations | optimal activity at pH 5 (gray squares), but less compared to full length | activity pattern comparable to full-length peptide at various pHs | activity pattern comparable to full-length peptide at various NaCl concentrations | activity pattern comparable to full-length peptide at various CaCl2 concentrations; also recorded: sensitive to CaCl2 concentrations | antimicrobial activity against E. coli (in words) (Escherichia coli (UTI89)): decreased relative to the full-length peptide; antimicrobial activity against E. coli (in words) (Escherichia coli (UTI89); listed as 1-97): strongest activity; also recorded: increased activity against both strains; MICs and MBCs fold lower than full length protein, E. coli (Escherichia coli (UTI89); [4]): at least 4 fold; antimicrobial activity against S. saprophyticus (in words) [2]: decreased relative to the full-length peptide; antimicrobial activity against S. saprophyticus (in words) ([2]; listed as 1-97): increased activity against both strains; MICs and MBCs fold lower than full length protein, S. saprophyticus [2, 4]: at least 4 fold |
